Reference: patent US20130157953A1, “TREATMENT OF CARDIAC CONDITIONS” (Zealand Pharma A/S, priority 2010, published 2013)
Numbered stars: 1 amine (or outer) side, 2 acyl side, 3 side chain; on linkers, the order of the positions; unused ones are H or OH. Bridge positions count the residues as written; N and C are the ends. Square brackets hold non-standard residues; d marks the D form. Side chains are listed from the residue outwards. * marks the point of attachment. γGlu = O=C(O)[C@H](CCC(=O)[*:2])N[*:1]; Palmitoyl = CCCCCCCCCCCCCCCC(=O)*; Aib = CC(C)(N)C(=O)O

B1: Compound 263 (peptide)
peptide: H-H[Aib]QGTFTSDYSKYLDEK([γGlu-Palmitoyl])RAKDFIEWLLSA-NH2
SMILES: CCCCCCCCCCCCCCCC(=O)N[C@@H](CCC(=O)NCCCC[C@H](NC(=O)[C@H](CCC(=O)O)NC(=O)[C@H](CC(=O)O)NC(=O)[C@H](CC(C)C)NC(=O)[C@H](Cc1ccc(O)cc1)NC(=O)[C@H](CCCCN)NC(=O)[C@H](CO)NC(=O)[C@H](Cc1ccc(O)cc1)NC(=O)[C@H](CC(=O)O)NC(=O)[C@H](CO)NC(=O)[C@@H](NC(=O)[C@H](Cc1ccccc1)NC(=O)[C@@H](NC(=O)CNC(=O)[C@H](CCC(N)=O)NC(=O)C(C)(C)NC(=O)[C@@H](N)Cc1c[nH]cn1)[C@@H](C)O)[C@@H](C)O)C(=O)N[C@@H](CCCNC(=N)N)C(=O)N[C@@H](C)C(=O)N[C@@H](CCCCN)C(=O)N[C@@H](CC(=O)O)C(=O)N[C@@H](Cc1ccccc1)C(=O)N[C@H](C(=O)N[C@@H](CCC(=O)O)C(=O)N[C@@H](Cc1c[nH]c2ccccc12)C(=O)N[C@@H](CC(C)C)C(=O)N[C@@H](CC(C)C)C(=O)N[C@@H](CO)C(=O)N[C@@H](C)C(N)=O)[C@@H](C)CC)C(=O)O
B2: Compound 259 (peptide)
peptide: H-HSQGTFTSDYSKYLDERRAQDFVWLMNT-NH2
modifications: lactam 12-16
SMILES: CSCC[C@H](NC(=O)[C@H](CC(C)C)NC(=O)[C@H](Cc1c[nH]c2ccccc12)NC(=O)[C@@H](NC(=O)[C@H](Cc1ccccc1)NC(=O)[C@H](CC(=O)O)NC(=O)[C@H](CCC(N)=O)NC(=O)[C@H](C)NC(=O)[C@H](CCCNC(=N)N)NC(=O)[C@H](CCCNC(=N)N)NC(=O)[C@@H]1CCC(=O)NCCCC[C@H](NC(=O)[C@H](CO)NC(=O)[C@H](Cc2ccc(O)cc2)NC(=O)[C@H](CC(=O)O)NC(=O)[C@H](CO)NC(=O)[C@@H](NC(=O)[C@H](Cc2ccccc2)NC(=O)[C@@H](NC(=O)CNC(=O)[C@H](CCC(N)=O)NC(=O)[C@H](CO)NC(=O)[C@@H](N)Cc2c[nH]cn2)[C@@H](C)O)[C@@H](C)O)C(=O)N[C@@H](Cc2ccc(O)cc2)C(=O)N[C@@H](CC(C)C)C(=O)N[C@@H](CC(=O)O)C(=O)N1)C(C)C)C(=O)N[C@@H](CC(N)=O)C(=O)N[C@H](C(N)=O)[C@@H](C)O
B3: Compound 257 (peptide)
peptide: H-HSQGTFTSDYSKYLDKRRAEDFVWLMNT-NH2
modifications: lactam 16-20
SMILES: CSCC[C@H](NC(=O)[C@H](CC(C)C)NC(=O)[C@H](Cc1c[nH]c2ccccc12)NC(=O)[C@@H](NC(=O)[C@H](Cc1ccccc1)NC(=O)[C@H](CC(=O)O)NC(=O)[C@@H]1CCC(=O)NCCCC[C@H](NC(=O)[C@H](CC(=O)O)NC(=O)[C@H](CC(C)C)NC(=O)[C@H](Cc2ccc(O)cc2)NC(=O)[C@H](CCCCN)NC(=O)[C@H](CO)NC(=O)[C@H](Cc2ccc(O)cc2)NC(=O)[C@H](CC(=O)O)NC(=O)[C@H](CO)NC(=O)[C@@H](NC(=O)[C@H](Cc2ccccc2)NC(=O)[C@@H](NC(=O)CNC(=O)[C@H](CCC(N)=O)NC(=O)[C@H](CO)NC(=O)[C@@H](N)Cc2c[nH]cn2)[C@@H](C)O)[C@@H](C)O)C(=O)N[C@@H](CCCNC(=N)N)C(=O)N[C@@H](CCCNC(=N)N)C(=O)N[C@@H](C)C(=O)N1)C(C)C)C(=O)N[C@@H](CC(N)=O)C(=O)N[C@H](C(N)=O)[C@@H](C)O
B4: Compound 204 (peptide)
peptide: H-HSQGTFTSDYSKYLDSKAAK([γGlu-Palmitoyl])DFVEWLLRA-NH2
SMILES: CCCCCCCCCCCCCCCC(=O)N[C@@H](CCC(=O)NCCCC[C@H](NC(=O)[C@H](C)NC(=O)[C@H](C)NC(=O)[C@H](CCCCN)NC(=O)[C@H](CO)NC(=O)[C@H](CC(=O)O)NC(=O)[C@H](CC(C)C)NC(=O)[C@H](Cc1ccc(O)cc1)NC(=O)[C@H](CCCCN)NC(=O)[C@H](CO)NC(=O)[C@H](Cc1ccc(O)cc1)NC(=O)[C@H](CC(=O)O)NC(=O)[C@H](CO)NC(=O)[C@@H](NC(=O)[C@H](Cc1ccccc1)NC(=O)[C@@H](NC(=O)CNC(=O)[C@H](CCC(N)=O)NC(=O)[C@H](CO)NC(=O)[C@@H](N)Cc1c[nH]cn1)[C@@H](C)O)[C@@H](C)O)C(=O)N[C@@H](CC(=O)O)C(=O)N[C@@H](Cc1ccccc1)C(=O)N[C@H](C(=O)N[C@@H](CCC(=O)O)C(=O)N[C@@H](Cc1c[nH]c2ccccc12)C(=O)N[C@@H](CC(C)C)C(=O)N[C@@H](CC(C)C)C(=O)N[C@@H](CCCNC(=N)N)C(=O)N[C@@H](C)C(N)=O)C(C)C)C(=O)O
B5: Compound 205 (peptide)
peptide: H-HSQGTFTSDYSKYLDSKAAHDFVEWLLK([γGlu-Palmitoyl])A-NH2
SMILES: CCCCCCCCCCCCCCCC(=O)N[C@@H](CCC(=O)NCCCC[C@H](NC(=O)[C@H](CC(C)C)NC(=O)[C@H](CC(C)C)NC(=O)[C@H](Cc1c[nH]c2ccccc12)NC(=O)[C@H](CCC(=O)O)NC(=O)[C@@H](NC(=O)[C@H](Cc1ccccc1)NC(=O)[C@H](CC(=O)O)NC(=O)[C@H](Cc1c[nH]cn1)NC(=O)[C@H](C)NC(=O)[C@H](C)NC(=O)[C@H](CCCCN)NC(=O)[C@H](CO)NC(=O)[C@H](CC(=O)O)NC(=O)[C@H](CC(C)C)NC(=O)[C@H](Cc1ccc(O)cc1)NC(=O)[C@H](CCCCN)NC(=O)[C@H](CO)NC(=O)[C@H](Cc1ccc(O)cc1)NC(=O)[C@H](CC(=O)O)NC(=O)[C@H](CO)NC(=O)[C@@H](NC(=O)[C@H](Cc1ccccc1)NC(=O)[C@@H](NC(=O)CNC(=O)[C@H](CCC(N)=O)NC(=O)[C@H](CO)NC(=O)[C@@H](N)Cc1c[nH]cn1)[C@@H](C)O)[C@@H](C)O)C(C)C)C(=O)N[C@@H](C)C(N)=O)C(=O)O

target: human glucagon receptor (Glucagon-R) (human, UniProt P47871 26-477); assay: cell-based or functional assay
Sequence (P47871 26-477): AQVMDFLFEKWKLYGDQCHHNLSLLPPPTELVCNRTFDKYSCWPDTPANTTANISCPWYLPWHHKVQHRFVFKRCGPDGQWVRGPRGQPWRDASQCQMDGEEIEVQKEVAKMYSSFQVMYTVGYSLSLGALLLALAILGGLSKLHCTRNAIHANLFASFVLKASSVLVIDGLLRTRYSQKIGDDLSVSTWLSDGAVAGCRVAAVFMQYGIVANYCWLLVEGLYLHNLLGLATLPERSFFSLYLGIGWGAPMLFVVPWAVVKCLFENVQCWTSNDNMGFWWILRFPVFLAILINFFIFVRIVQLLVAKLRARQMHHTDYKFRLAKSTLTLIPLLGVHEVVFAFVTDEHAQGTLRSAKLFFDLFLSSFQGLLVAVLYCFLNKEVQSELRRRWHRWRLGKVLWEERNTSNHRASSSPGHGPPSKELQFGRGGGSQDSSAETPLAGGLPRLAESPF

H-HSQGTFTSDYSKYLDSRAAQDFVWLMNT-NH2 [Compound 246] and H-HSQGTFTSDYSKYLDSERAQDFVWLMNT-NH2 [Compound 243] are within 1.5-fold of each other in “EC50 (nM) GuR; cAMP content, HEK293 cells expressing the human glucagon receptor” value (shortened to “EC50 (nM) GuR; cAMP content”): 0.05 nM for the first, 0.06 nM for the second.

Going from H-H[Aib]QGTFTSDYSKYLDSK([3‑aminopropanoyl-Palmitoyl])AAHDFVEWLLSA-NH2 [Compound 215] to H-HSQGTFTSDYSKYLDRARADDFVAWLKST-NH2 [Compound 12], the “EC50 (nM) GuR; cAMP content” value falls from 1.87 nM to 0.5 nM (3.7-fold).

Going from B1 to H-HSQGTFTSDYSKYLDSKAAQDFVWLMNT-NH2 [Compound 260], the “EC50 (nM) GuR; cAMP content” value falls from 0.16 nM to 0.07 nM (2.3-fold).

Going from H-HSQGTFTSDYSKYLDSRHAQDFVWLMNT-NH2 [Compound 244] to B2, the “EC50 (nM) GuR; cAMP content” value falls from 0.05 nM to 0.03 nM (1.7-fold).

Going from H-HSQGTFTSDYSRYLDERRAQDFVWLMNT-NH2 [Compound 258] to B3, the “EC50 (nM) GuR; cAMP content” value rises from 0.06 nM to 0.09 nM (1.5-fold).

Compared with B4, H-HSQGTFTSDYSRYLDSRRAQDFVWLLNK-NH2 [Compound 254] is 5-fold higher in “EC50 (nM) GuR; cAMP content” value: 0.04 nM for the first, 0.2 nM for the second.

Going from H-HSQGTFTSDYSKYLDKRRAEDFVWLMNT-NH2 [Compound 256] to H-HSQGTFTSDYSRYLDSRRAKDFVWLLNT-NH2 [Compound 252], the “EC50 (nM) GuR; cAMP content” value rises from 0.07 nM to 0.3 nM (4.3-fold).

H-HSQGTFTSDYSKYLDSRSAQDFVWLMNT-NH2 [Compound 245] and H-HSQGTFTSDYSKYLDSKAAHDFVEWLLRA-NH2 [Compound 48] are within 1.5-fold of each other in “EC50 (nM) GuR; cAMP content” value: 0.05 nM for the first, 0.06 nM for the second.

target: human glucagon-like peptide 1 receptor (GLP-1R) (human, UniProt P43220 24-463); assay: cell-based or functional assay

H-HSQGTFTSDYSKYLDSRAAQDFVWLMNT-NH2 [Compound 246] and H-HSQGTFTSDYSKYLDRARADDFVAWLKST-NH2 [Compound 12] are within 1.5-fold of each other in “EC50 (nM) GLP-1R; cAMP content, HEK293 cells expressing human GLP-1R” value (“EC50 (nM) GLP-1R; cAMP content” for short): 0.3 nM for the first, 0.23 nM for the second.

Compared with H-HSQGTFTSDYSKYLDSRRAQDFVWLERA-NH2 [Compound 251], H-HSQGTFTSDYSKYLDSKAAQDFVWLMNT-NH2 [Compound 260] is 10-fold lower in “EC50 (nM) GLP-1R; cAMP content” value: 0.2 nM for the first, 0.02 nM for the second.

Going from H-HSQGTFTSDYSKYLDSRHAQDFVWLMNT-NH2 [Compound 244] to B5, the “EC50 (nM) GLP-1R; cAMP content” value falls from 0.5 nM to 0.09 nM (5.6-fold).

First: H-HSQGTFTSDYSKYLDSRRAQDFVWLESA-NH2 [Compound 248]
Second: B2
The “EC50 (nM) GLP-1R; cAMP content” value of the first is 12-fold higher: 0.5 nM for the first, 0.04 nM for the second.

Compared with H-HSQGTFTSDYSRYLDERRAQDFVWLMNT-NH2 [Compound 258], H-HSQGTFTSDYSKYLDSRRAQDFVWLKRA-NH2 [Compound 250] is 4.3-fold higher in “EC50 (nM) GLP-1R; cAMP content” value: 0.07 nM for the first, 0.3 nM for the second.

H-HSQGTFTSDYSKYLDSALAQDFVWLLNT-NH2 [Compound 255] and H-HSQGTFTSDYSRYLDSRRAQDFVWLLNK-NH2 [Compound 254] are within 1.5-fold of each other in “EC50 (nM) GLP-1R; cAMP content” value: 0.24 nM for the first, 0.2 nM for the second.

H-HSQGTFTSDYSKYLDKRRAEDFVWLMNT-NH2 [Compound 256] and H-HSQGTFTSDYSKYLDSRYAQDFVWLMNT-NH2 [Compound 247] are within 1.5-fold of each other in “EC50 (nM) GLP-1R; cAMP content” value: 0.2 nM for the first, 0.3 nM for the second.

Going from H-HSQGTFTSDYSRYLDSRRAKDFVWLLNT-NH2 [Compound 252] to H-HSQGTFTSDYSRYLDSRRAQDFVWLLNT-NH2 [Compound 253], the “EC50 (nM) GLP-1R; cAMP content” value falls from 0.5 nM to 0.2 nM (2.5-fold).

In the case of H-HSQGTFTSDYSKYLDSKAAHDFVEWLLRA-NH2 [Compound 48], the “EC50 (nM) GLP-1R; cAMP content” value is reported as 0.06 nM.
